Test results taken from paper PMC8699488, “Side-by-Side Comparison of Five Chelators for ^89Zr-Labeling of Biomolecules: Investigation of Chemical/Radiochemical Properties and Complex Stability” (Cancers, 2021).

Columns and labels:
[1] = EDTA-based 89Zr complex challenge experiments (relative kinetic inertness, radio-HPLC); type: physicochemical; conditions: 10,000 eq. of EDTA, pH 7.0, 25 °C, transchelation monitored for up to 54 h by radio-HPLC
Method: For each challenge experiment, three separate solutions of EDTA (14.61 mg, 50 µmol EDTA) in HEPES buffer (0.25 M, pH = 7.0, 380 µL) were prepared. The pH of the solutions was adjusted to pH 7.0 by the addition of a NaOH solution (30%, 12.5 µL), and Tracepur water (7.5 µL) was added to give a final volume of 400 µL of the EDTA solutions. To these solutions was added a solution of the respective ^89Zr-labeled peptide conjugate (5 nmol, 9.7–13.9 MBq), and the solutions were kept at 25 °C over the course of the experiment. At predefined time points, each solution was analyzed by analytical radio-HPLC for determination of the amount of ^89Zr transchelation. Each experiment was performed at least twice, each in triplicate.
In order to directly compare and assess the kinetic inertness of the formed ^89Zr complexes of [^89Zr]Zr-29–[^89Zr]Zr-32, we performed complex challenge experiments using EDTA as the challenging agent of [^89Zr]Zr-30–[^89Zr]Zr-32 in comparison to [^89Zr]Zr-29 serving as the gold standard. […]

[2] = Determination of logD(7.4), distribution between n-octanol and phosphate buffer pH 7.4; type: physicochemical; conditions: n-octanol / 0.05-M phosphate buffer pH 7.4; 89Zr-labeled peptide-chelator conjugate
Method: To a mixture of 1-octanol (800 µL) and 0.05-M phosphate buffer (775 µL, pH 7.4), a solution of the respective ^89Zr-labeled peptide conjugate (5µL of the before-obtained product solution, 0.8–1.2 MBq, 0.37–0.45 nmol) was added. The mixture was vigorously shaken for two minutes. Afterwards, the phases were separated by centrifugation. Two hundred microliters of each, the organic and the aqueous, phase were measured in a gamma counter. Each experiment was performed at least thrice, each in duplicate.
The logD(7.4) values of the ^89Zr-labeled peptide–chelator conjugates were determined by their distribution coefficient between n-octanol and phosphate buffer at pH 7.4.

[3] = test system: integrin αvβ3; set-up: method as in PMID 28074920; conditions: cited from earlier work

| Compound | kinetic inertness of the 89Zr complex against EDTA challenge [1] | logD [2] | affinity for integrin αvβ3 [3] |
| --- | --- | --- | --- |
| CC(=O)N(O)CCCCCNC(=O)CCC(=O)N(O)CCCCCNC(=O)CCC(=O)N(O)CCCCCNC(=O)CCC(=O)NCc1ccc(-c2nncc3c2CCC(OC(=O)NCCCC[C@@H]2NC(=O)[C@@H](Cc4ccccc4)NC(=O)[C@H](CC(=O)O)NC(=O)CNC(=O)[C@H](CCCNC(=N)N)NC2=O)CCC3)cc1 (some centres unmarked) [[^89Zr]Zr-29, metal not drawn] | limited inertness and rapid transfer of the radiometal to EDTA | -2.32 ± 0.21 |  |
| c(RGDfK) |  |  | high affinity |
| CC(=O)N(O)CCCCCNC(=O)CCC(=O)N(O)CCCCCNC(=O)CCC(=O)N(O)CCCCCNC(=O)CCC(=O)N(O)CCCCCNC(=O)CCC(=O)NCc1ccc(-c2nncc3c2CCC(OC(=O)NCCCC[C@@H]2NC(=O)[C@@H](Cc4ccccc4)NC(=O)[C@H](CC(=O)O)NC(=O)CNC(=O)[C@H](CCCNC(=N)N)NC2=O)CCC3)cc1 (some centres unmarked) [[^89Zr]Zr-31, metal not drawn] | high resistance to the challenge | -2.49 ± 0.03 |  |
